Data from the Human Domainome abundance scans (Beltran et al. 2025).
± gives the uncertainty stated by the source.

B1: Zinc finger homeobox protein 3, residues 2643 to 2698; numbered along this chain, Q15911 (parent)
chain: RLRTTITPEQLEILYQKYLLDSNPTRKMLDHIAHEVGLKKRVVQVWFQNTRARERK

Variants of: B1
Assay: abundance fitness (aPCA) (normalised: wild type 0, dead -1); higher = more abundant; growth selection in yeast, the domain comes from the species named
Conditions: Homo sapiens

Q: Which abundance fitness does the source give for RLRTTITPEQLEILYQKYLLDSNPTRKMLCHIAHEVGLKKRVVQVWFQNTRARERK [D30C] here?
A: -0.486 ± 0.14

Q: Which abundance fitness does the source give for RLRTTITPEQLEILYQKYLLDSNPTRKMLQHIAHEVGLKKRVVQVWFQNTRARERK [D30Q] here?
A: 0.1 ± 0.14

Q: For RLRTTITPEQLEILYQKYLLDSNPTRKMLHHIAHEVGLKKRVVQVWFQNTRARERK [D30H], which abundance fitness is on record?
A: 0.007 ± 0.15

Q: With RLRTTITPEQLEILYQKYLLDSNPTRKMLSHIAHEVGLKKRVVQVWFQNTRARERK [D30S] as the variant, how does the abundance fitness read?
A: -0.108 ± 0.085

Q: For RLRTTITPEQLEILYQKYLLDSNPTRKMLWHIAHEVGLKKRVVQVWFQNTRARERK [D30W], which abundance fitness is on record?
A: -0.442 ± 0.12

Q: Which abundance fitness does the source give for RLRTTITPEQLEILYQKYLLDSNPTRKMLRHIAHEVGLKKRVVQVWFQNTRARERK [D30R] here?
A: -0.124 ± 0.081

Q: Which abundance fitness does the source give for RLRTTITPEQLEILYQKYLLDSNPTRKILDHIAHEVGLKKRVVQVWFQNTRARERK [M28I] here?
A: -0.557 ± 0.43

Q: With RLRTTITPEQLEILYQKYLLDSNPTRVMLDHIAHEVGLKKRVVQVWFQNTRARERK [K27V] as the variant, how does the abundance fitness read?
A: -0.007 ± 0.081

Q: For RLRTTITPEQLEILYQKYLLDSNPTRYMLDHIAHEVGLKKRVVQVWFQNTRARERK [K27Y], which abundance fitness is on record?
A: -0.241 ± 0.18

Q: With RLRTTITPEQLEILYQKYLLDSNPTRKMLDHPAHEVGLKKRVVQVWFQNTRARERK [I32P] as the variant, how does the abundance fitness read?
A: -0.915 ± 0.13

Q: With RLRTTITPEQLEILYQKYLLDSNPTRKMLDHTAHEVGLKKRVVQVWFQNTRARERK [I32T] as the variant, how does the abundance fitness read?
A: -0.274 ± 0.1

Q: With RLRTTITPEQLEILYQKYLLDSNPTRKMLDHYAHEVGLKKRVVQVWFQNTRARERK [I32Y] as the variant, how does the abundance fitness read?
A: -0.378 ± 0.2

Q: Which abundance fitness does the source give for RLRTTITPEQLEILYQKYLLDSNPTRKMLDHHAHEVGLKKRVVQVWFQNTRARERK [I32H] here?
A: -0.527 ± 0.26

Q: For RLRTTITPEQLEILYQKYLLDSNPTRKMLDHVAHEVGLKKRVVQVWFQNTRARERK [I32V], which abundance fitness is on record?
A: -0.078 ± 0.084

Q: For RLRTTITPEQLEILYQKYLLDSNPTRKMLDHFAHEVGLKKRVVQVWFQNTRARERK [I32F], which abundance fitness is on record?
A: -0.108 ± 0.14

Q: Which abundance fitness does the source give for RLRTTITPEQLEILYQKYLLDSNPTRKMLDHCAHEVGLKKRVVQVWFQNTRARERK [I32C] here?
A: -0.749 ± 0.17

Q: Which abundance fitness does the source give for RLRTTITPEQLEILYQKYLLDSNPTRKMLDHEAHEVGLKKRVVQVWFQNTRARERK [I32E] here?
A: -0.9 ± 0.13

Q: With RLRTTITPEQLEILYQKYLLDSNPTRKMLDHSAHEVGLKKRVVQVWFQNTRARERK [I32S] as the variant, how does the abundance fitness read?
A: -0.735 ± 0.1

Q: Which abundance fitness does the source give for RLRTTITPEQLEILYQKYLLDSNPTRKMLDHRAHEVGLKKRVVQVWFQNTRARERK [I32R] here?
A: -1.01 ± 0.11

Q: Which abundance fitness does the source give for RLRTTITPEQLEILYQKYLLDSNPTRKMLDHWAHEVGLKKRVVQVWFQNTRARERK [I32W] here?
A: -0.129 ± 0.11

Q: Which abundance fitness does the source give for RLRTTITPEQLEILYQKYLLDSNPTRKMLDHGAHEVGLKKRVVQVWFQNTRARERK [I32G] here?
A: -0.77 ± 0.094

Q: For RLRTTITPEQLEILYQKYLLDSNPTRKMLDHLAHEVGLKKRVVQVWFQNTRARERK [I32L], which abundance fitness is on record?
A: -0.123 ± 0.08

Q: With RLRTTITPEQLEILYQKYLLDSNPTRKMLDHMAHEVGLKKRVVQVWFQNTRARERK [I32M] as the variant, how does the abundance fitness read?
A: -0.466 ± 0.1

Q: Which abundance fitness does the source give for RLRTTITPEQLEILYQKYLLDSNPTRKMLDHDAHEVGLKKRVVQVWFQNTRARERK [I32D] here?
A: -1.02 ± 0.18

Q: For RLRTTITPEQLEILYQKYLLDSNPTRKMLDHKAHEVGLKKRVVQVWFQNTRARERK [I32K], which abundance fitness is on record?
A: -0.807 ± 0.14

Q: With RLRTTITPEQLEILYQKYLLDSNPTRKMLDHAAHEVGLKKRVVQVWFQNTRARERK [I32A] as the variant, how does the abundance fitness read?
A: -0.886 ± 0.1

Q: With RLRTTITPEQLEILYQKYLLDSNPTRKMLDHNAHEVGLKKRVVQVWFQNTRARERK [I32N] as the variant, how does the abundance fitness read?
A: -1.25 ± 0.25

Q: With RLRTTITPEQLEILYQKYLLDSNPTRKMLDHITHEVGLKKRVVQVWFQNTRARERK [A33T] as the variant, how does the abundance fitness read?
A: -0.43 ± 0.08

Q: Which abundance fitness does the source give for RLRTTITPEQLEILYQKYLLDSNPTRKMLDHIEHEVGLKKRVVQVWFQNTRARERK [A33E] here?
A: -0.759 ± 0.18

Q: For RLRTTITPEQLEILYQKYLLDSNPTRKMLDHIYHEVGLKKRVVQVWFQNTRARERK [A33Y], which abundance fitness is on record?
A: -0.822 ± 0.11

Q: Which abundance fitness does the source give for RLRTTITPEQLEILYQKYLLDSNPTRKMLDHIWHEVGLKKRVVQVWFQNTRARERK [A33W] here?
A: -0.728 ± 0.18

Q: With RLRTTITPEQLEILYQKYLLDSNPTRKMLDHIKHEVGLKKRVVQVWFQNTRARERK [A33K] as the variant, how does the abundance fitness read?
A: -0.804 ± 0.14

Q: For RLRTTITPEQLEILYQKYLLDSNPTRKMLDHINHEVGLKKRVVQVWFQNTRARERK [A33N], which abundance fitness is on record?
A: -0.906 ± 0.11

Q: Which abundance fitness does the source give for RLRTTITPEQLEILYQKYLLDSNPTRKMLDHIGHEVGLKKRVVQVWFQNTRARERK [A33G] here?
A: -0.398 ± 0.086

Q: With RLRTTITPEQLEILYQKYLLDSNPTRKMLDHIPHEVGLKKRVVQVWFQNTRARERK [A33P] as the variant, how does the abundance fitness read?
A: -0.746 ± 0.085

Q: For RLRTTITPEQLEILYQKYLLDSNPTRKMLDHIVHEVGLKKRVVQVWFQNTRARERK [A33V], which abundance fitness is on record?
A: -0.492 ± 0.084

Q: Which abundance fitness does the source give for RLRTTITPEQLEILYQKYLLDSNPTRKMLDHIDHEVGLKKRVVQVWFQNTRARERK [A33D] here?
A: -0.866 ± 0.11

Q: Which abundance fitness does the source give for RLRTTITPEQLEILYQKYLLDSNPTRKMLDHIMHEVGLKKRVVQVWFQNTRARERK [A33M] here?
A: -0.832 ± 0.14

Q: With RLRTTITPEQLEILYQKYLLDSNPTRKMLDHISHEVGLKKRVVQVWFQNTRARERK [A33S] as the variant, how does the abundance fitness read?
A: -0.06 ± 0.074

Q: For RLRTTITPEQLEILYQKYLLDSNPTRKMLDHILHEVGLKKRVVQVWFQNTRARERK [A33L], which abundance fitness is on record?
A: -0.872 ± 0.089

Q: Which abundance fitness does the source give for RLRTTITPEQLEILYQKYLLDSNPTRKMLDHIQHEVGLKKRVVQVWFQNTRARERK [A33Q] here?
A: -0.845 ± 0.14

Q: For RLRTTITPEQLEILYQKYLLDSNPTRKMLDHICHEVGLKKRVVQVWFQNTRARERK [A33C], which abundance fitness is on record?
A: -0.127 ± 0.1

Q: With RLRTTITPEQLEILYQKYLLDSNPTRKMLDHIAFEVGLKKRVVQVWFQNTRARERK [H34F] as the variant, how does the abundance fitness read?
A: -0.114 ± 0.15

Q: With RLRTTITPEQLEILYQKYLLDSNPTRKMLDHIACEVGLKKRVVQVWFQNTRARERK [H34C] as the variant, how does the abundance fitness read?
A: -0.075 ± 0.099

Q: For RLRTTITPEQLEILYQKYLLDSNPTRKMLDHIADEVGLKKRVVQVWFQNTRARERK [H34D], which abundance fitness is on record?
A: 0.035 ± 0.15

Q: Which abundance fitness does the source give for RLRTTITPEQLEILYQKYLLDSNPTRKMLDHIAEEVGLKKRVVQVWFQNTRARERK [H34E] here?
A: 0.099 ± 0.16

Q: With RLRTTITPEQLEILYQKYLLDSNPTRKMLDHIAAEVGLKKRVVQVWFQNTRARERK [H34A] as the variant, how does the abundance fitness read?
A: -0.123 ± 0.11
